In US10287317B2, “Proprotein convertase subtilisin kexin type 9 (PCSK9) allosteric binding ligands to modulate serum low density lipoprotein (LDL) levels” (SRX Cardio, LLC, priority 2013, dated 2019):
*1 amine or outer side, *2 acyl side, *3 side chain or, on linkers, in order; H or OH if unused. Where a SMILES comes first, the peptide text is derived from it. Where no end group is shown, it is not given here. [ ]: non-standard residue; d: D form. The star is where a group is joined. Asp(NHCH2Ph) = Asp side-chain benzylamide, O=C(C[C@H](N[*:1])C(=O)[*:2])NCc1ccccc1; Cys(CH2-Ph) = S-benzyl-Cys, O=C([C@H](CSCc1ccccc1)N[*:1])[*:2]; Phe(3-CH2NH2) = O=C([C@H](Cc1cccc(CN[*:3])c1)N[*:1])[*:2]; d(pS) = N[C@H](COP(=O)(O)O)C(=O)O; hCha = N[C@@H](CCC1CCCCC1)C(=O)O; pS = N[C@@H](COP(=O)(O)O)C(=O)O; Trp(3-Me) = 3-methyltryptophan; Bn = c1ccc(C*)cc1; βAla = NCCC(=O)O

What was measured:
Assay type in all cases: cell-based
PCSK9-WT protein [1] = target: T1, PCSK9-WT protein (Homo sapiens, UniProt Q8NBP7); assay: FACS analysis of cell surface LDLR in HuH7 cells with PCSK9-WT; details: FACS, HuH7 cells; for inhibition at 100 µM: Huh-7, peptide at 100 uM, read-out: Cell Activity of Exemplified Peptides (inhibition); for modulation of LDLR cell surface level: exogenous WT PCSK9 plus peptide (FIG. 1, 100 μM)
T1 construct: V5
Method: HuH7 cells were incubated for 18 h in the absence (Cnt) or presence of 0.75 μg/ml PCSK9-WT protein alone (WT) or mixed with 100 μM of various SRX peptides. The level of LDLR at the cell surface was measured by FACS using anti human LDLR Ab and a suitable secondary Ab labeled with Alexa 647. Cell surface LDLR is reported relative to Cnt. % inhibition of activity was calculated as [SRX−WT]/[Cnt−WT]×100%.
See, FIG. 1. In that experiment, the LDLR levels of a hepatocyte culture model (HuH7 cells) were measured by fluorescence activated cell sorting (FACS) in accordance with Example III. Cell surface LDLR is reported as a percentage of Basal levels of LDLR, indicated by the Cnt_Amm.Bic, Cnt_Ac.Acid, and Cnt bars in the top graph. See, FIG. 1 (top panel). LDLR levels in the presence of exogenous PCSK9 is indicated as WT_Amm.Bic, WT-Ac.Acid, and WT, and Exogenous PCSK9 in combination with a tested peptide is indicated as SRX##. The measured LDLR levels are reported as % versus basal controls (Cnt) of the respective group. […] This was further shown a percent inhibition (% inhibition was calculated as [SRX−WT]/[Cnt−WT]×100%) where positive modulation (increase) of LDLR level is reported as positive % inhibition, and negative modulation (decrease) of LDLR level is reported as negative % inhibition. See, FIG. 1 (bottom panel).
Benjannet et al., “Effects of the prosegment and pH on the activity of PCSK9: evidence for additional processing events” J Biol Chem. 285(52): 40965-40978 (2010). The cells were then washed 3× with solution A (calcium/magnesium-free Dulbecco's PBS (Invitrogen) containing 0.5% bovine serum albumin (Sigma) and 1 g/liter glucose)). The cells were then incubated for 10 min at room temperature with 1× Versene solution (Invitrogen) followed by the addition of 5 ml of solution A. The cells were then incubated for 40 min in solution A containing a human LDLR mAb-C7 (1:100; Santa Cruz Biotechnology). Following washes, the cells were then incubated for 20 min in solution A containing a secondary antibody (Alexa Fluor 647 donkey anti-mouse antibody; 1:250; Molecular Probes).
Following suspension in PBS containing 0.2% of propidium iodide, the cells were analyzed by FACS for both propidium iodide (dead cells) and LDLR in live cells with Alexa Fluor 647 using the FACS BD LSR (BD Biosciences).

PCSK9-D374Y protein = PCSK9-D374Y protein (Homo sapiens, UniProt Q8NBP7, D374Y); assay: Cellular diI-LDL uptake in HuH7 cells with PCSK9-D374Y
Method: (§1) HuH7 cells were incubated in a 96-well plate for a total of 20 h in the absence (Cnt) or presence of 0.5 μg/ml PCSK9-D374Y protein alone (DY) or mixed with 100 uM of various SRX peptides. After 16 h, dil-LDL (5 ug/ml) was added to the incubation mixtures. After 4 h, fluorescence was measured (Ex: 520 nm/Em: 575 nm; cutoff: 550 nm). Dil-LDL uptake is calculated as RFU corrected for the number of cells.
as §1, with “PCSK9 GOF-D374Y” for “PCSK9-D374Y”, “increasing concentrations” for “100 uM”
(§2) LDL internalization was measured by uptake of a fluorescently tagged LDL molecule (diI-LDL) in the absence of exogenous PCSK9 (Cnt), in the presence of exogenous PCSK9 (normal PCSK9=WT, D374Y mutant PCSK9=DY), or in the presence of PCSK9 and a tested peptide (indicated as SRX##, or SRX if a single peptide results is shown in a graph).
(§3) Cells, such as HepG2, HuH7, FL83B or a cell line transfected with a short-hairpin PCSK9 knockdown sequence such as HepG2/shPCSK9, HuH7/shPCSK9, FL83B/shPCSK9, were seeded at 2×10^4 cells/well in a 96-well plate and cultured at 37 degC in RPMI+10% FBS. After approximately 24 hours, the cell media was aspirated off and replaced with RPMI+3-5 mg/mL LPDS (Lipoprotein Deficient Serum, Millipore) media for further experimentation. Benjannet et al., “Effects of the prosegment and pH on the activity of PCSK9: evidence for additional processing events” J Biol Chem. 285(52): 40965-40978 (2010).
(§4) Peptide activity was assessed by culturing cells with: i) no SRX peptide/PCSK9 protein complex (control, Cnt); ii) PCSK9 protein; and iii) SRX peptide/PCSK9 complex. Various permutations of these experimental conditions were also used, including: i) the addition of wild type PCSK9 (WT); ii) a mutant PCSK9 (e.g., D374Y mutant PCSK9, DY); iii) various SRX peptides and/or PCSK9 at the same concentration and/or combinations; iv) various SRX peptides and/or PCSK9 at different concentrations and/or combinations; v) the use of different cells, as mentioned above, with or without a transfected short-hairpin sequence; vi) a pre-incubation of the PCSK9 and SRX peptide (e.g., 1, hour, 2 hours, 3 hours, 4 hours etc.); vii) various temperatures including, but not limited to, body temperature (e.g., 37° C.), supraphysiologic temperature (e.g., 39° C.); and viii) with/without agitation (e.g., shaker or gentle periodic vortexing).
(§5) Cells were cultured using one of the combinations of conditions described in the preceding paragraph for 16 hours. After 16 hours, a quantity of diI-LDL (Low density lipoprotein coupled with 1,1′-dioctadecyl-3,3,3′,3′-tetramethylindocarbocyanine perchlorate) needed to bring the media concentration to 5 ug/mL of diI-LDL was added to the culture well and cells continued to be cultured under these new conditions for 4 additional hours. At the end of the 4-hour incubation period (20 total hours of cell culture), the cellular uptake was halted with the addition of 4% formaldehyde in 10 uM Hoechst 33342 in a solvent such as deionized autoclaved water or PBS, and specimens were incubated at 20° C. for 20 minutes. Cell specimens were rinsed twice with PBS and then fluorescence measured with excitation at 360 nm and emission detected at 460 nm to measure DNA content. Cell specimens were then be incubated with a 0.1% SDS in a 0.1 N NaOH solution while being shaken for 10 minutes. Fluorescence of the diI-LDL in the specimens were quantified using excitation at 530 nm and resulting emission at 580 nm.
Fluorescence measurements of diI-LDLR were normalized to estimated cell numbers, determined from the Hoechst fluorescence. […]

PCSK9-WT protein [2] = target: T1, PCSK9-WT protein; assay: Cellular diI-LDL uptake in HuH7 cells with PCSK9-WT; details: HuH7, 1.0 μg/ml PCSK9-WT, 100 uM peptide (FIG. 2)
Method: as §1, with “1.0” for “0.5”, “PCSK9-WT” for “PCSK9-D374Y”, “(WT)” for “(DY)”
as §2, §3, §4, §5
Fluorescence measurements of diI-LDLR were normalized to estimated cell numbers, determined from the Hoechst fluorescence. Data was analyzed for the different experimental conditions and reported as percentage relative fluorescence units (RFU) of the Cnt specimen. Percent inhibition was calculated as the difference in RFU of a peptide exposed specimen to the RFU of PCSK9-no peptide, divided by the RFU difference in PCSK9-no peptide to RFU of Cnt specimen, also expressed as [(SRX:RFU)−(PCSK9-no peptide:RFU)]/[(PCSK9-no peptide:RFU)−(Cnt:RFU)]×100.

[3] = HuH7, 0.5 μg/ml PCSK9-D374Y, 100 uM peptide (FIG. 3)
[4] = HuH7, 0.5 μg/ml PCSK9 GOF-D374Y, increasing concentrations of peptide (FIG. 4)

PCSK9-D374Y protein, sequence (Q8NBP7 153-692 D374Y): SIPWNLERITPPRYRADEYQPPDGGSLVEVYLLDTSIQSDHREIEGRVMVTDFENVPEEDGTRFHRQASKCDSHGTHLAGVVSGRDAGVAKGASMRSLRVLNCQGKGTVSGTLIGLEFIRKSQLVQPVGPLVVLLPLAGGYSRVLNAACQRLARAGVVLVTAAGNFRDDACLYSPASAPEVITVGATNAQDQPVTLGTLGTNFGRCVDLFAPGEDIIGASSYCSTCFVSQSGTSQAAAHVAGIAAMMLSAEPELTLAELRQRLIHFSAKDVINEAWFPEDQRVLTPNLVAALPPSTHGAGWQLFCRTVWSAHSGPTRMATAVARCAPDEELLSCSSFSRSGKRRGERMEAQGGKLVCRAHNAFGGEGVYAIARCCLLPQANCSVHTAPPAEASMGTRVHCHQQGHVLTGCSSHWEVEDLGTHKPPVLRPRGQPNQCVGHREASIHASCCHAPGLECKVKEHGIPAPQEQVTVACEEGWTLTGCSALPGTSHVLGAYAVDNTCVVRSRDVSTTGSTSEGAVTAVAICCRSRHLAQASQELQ
T1 sequence (Q8NBP7 153-692): as the sequence (Q8NBP7 153-692 D374Y) above, with Y222D counted along it

Molecule	inhibition at 100 µM (PCSK9-WT protein [1])	modulation of LDLR cell surface level (PCSK9-WT protein [1])	LDL internalization (dil-LDL % uptake vs Cnt) (PCSK9-D374Y protein; [3])	LDL internalization (dil-LDL % uptake vs Cnt) (PCSK9-WT protein [2])	LDL internalization (dil-LDL % uptake vs Cnt) (PCSK9-D374Y protein; [4])
CC(C)C[C@H](NC(=O)[C@@H](N)[C@@H](C)O)C(=O)N[C@@H](CSCc1ccccc1)C(=O)N[C@H](C(=O)N[C@@H](Cc1c[nH]c2ccccc12)C(=O)N[C@@H](CO)C(=O)N[C@@H](CO)C(=O)N[C@@H](COP(=O)(O)O)C(=O)O)[C@@H](C)O [Compound 3, Thr-Leu-Cys(CH2-Ph)-Thr-Trp-Ser-Ser-Ser(p)] (H-TLC(Bn)TWSS[pS]-OH)	> 30%				
CC(=O)N[C@@H](Cc1ccc(O)cc1)C(=O)N[C@@H](Cc1c[nH]c2ccccc12)C(=O)NCC(=O)O [Compound 14, Ac-Tyr-Trp-Gly] (Ac-Tyr-Trp-Gly-OH)	< -30%	negatively modulate (decrease)	negatively modulated (decreased)		
Ac-Trp-Ala-Ser(p) (Ac-Trp-Ala-[pS]) [Compound 12]		negatively modulate (decrease)			
LDLFFS [Compound 9]			positively modulated (increased)	negatively modulated (decreased)	positively modulated (increased)
Thr-Leu-Cys(CH2-Ph)-Thr-Trp(3-Me)-Ser-Ser-Ser(p) (TL[Cys(CH2-Ph)]T[Trp(3-Me)]SS[pS]) [Compound 7]			positively modulated (increased)	negatively modulated (decreased)	
Thr-Leu-Cys(CH2-Ph)-Thr-Trp-Ser-Ser-Ser(p) [Compound 3]		positively modulate (increase)	positively modulated (increased)	positively modulated (increased)	positively modulated (increased)
Thr-Leu-Gly(CH2CH2cyclohexyl)-Thr-Trp-Ser-Ser-Ser(p) (TL[hCha]TWSS[pS]) [Compound 5]		positively modulate (increase)			
VLELYW [Compound 8]				negatively modulated (decreased)	
β-Ala-Phe(3-CH2NH2)-Val-D-Ser(p)-Phe-Trp ([βAla][Phe(3-CH2NH2)]V[d(pS)]FW) [Compound 2]		positively modulate (increase)	positively modulated (increased)	positively modulated (increased)	positively modulated (increased)

The next lines start with the values.

inhibition at 100 µM (PCSK9-WT protein [1])	modulation of LDLR cell surface level (PCSK9-WT protein [1])	LDL internalization (dil-LDL % uptake vs Cnt) (PCSK9-D374Y protein; [3])	LDL internalization (dil-LDL % uptake vs Cnt) (PCSK9-WT protein [2])	LDL internalization (dil-LDL % uptake vs Cnt) (PCSK9-D374Y protein; [4])	Molecule
			positively modulated (increased)		Ile-Leu-Asp-Leu-Ser-Tyr (ILDLSY; not fully specified (C-terminus); printed as Ile-Leu-Asp-Leu-Ser-Tyr) [Compound 10]
	negatively modulate (decrease)	negatively modulated (decreased)	negatively modulated (decreased)		Phe(4-Ph)-Ala-Ser(p)-morpholine [Compound 16]
			negatively modulated (decreased)		Thr-Leu-Asp(NHCH2Ph)-Thr-Trp-Ser-Ser-Ser(p) (TL[Asp(NHCH2Ph)]TWSS[pS]) [Compound 4]
		negatively modulated (decreased)	negatively modulated (decreased)		Thr-Leu-Thr-Trp-Ser-Ser-Ser(p) (TLTWSS[pS]) [Compound 15]
